Measurements from patent US20050054615A1, “Calmodulin independent activation of nitric oxide synthase” (Rensselaer Polytechnic Institute, priority 2002, published 2005).

Biological target: T1, eNOS (Bos taurus, UniProt P29473, DEL841-841)
T1 construct: made in house; host or cells: E. coli BL21 (pCWori+)
Experiment: NO synthase activity per heme of eNOS mutants
Type: biochemical, bovine
Conditions: fully activated state (Ca+2/CaM)
Method: Expression and purification of wild type and mutant bovine eNOS and rat nNOS. Expression and purification of bovine eNOS and rat nNOS were performed using procedures similar to those previously described (Martasek, P.,et al., (1996) Biochem Biophys Res Commun. 219(2); 359-65). Transformed cells were broken with a French press, and after centrifugation to remove cell debris the supernatant was loaded on a 2′5′ADP affinity column, washed, and eluted with 2′AMP as described (id). […] Enzyme sample concentrations were determined on the basis of heme concentration, except in heme free preparations, where the flavin concentration was measured. UV-visible absorbance spectra were recorded on an Aminco DW-2000 spectrophotometer.
Nitric Oxide production was assayed using the Griess assay as adapted for microtiter plates (Gross, S. S. (1996) Methods Enzymol. 268:159-68); calcium dependence was measured using EDTA as a Ca+2 buffer system. […] NADPH-dependent cytochrome c reduction was measured spectrophotometrically as described by McMillan et al (McMillan, K., et al., (1992) Proc Nat. Acad. Sci. U.S.A. 89, 11141-11145), adapted to 96-well plate microtiter plates. […] Cytochrome c reduction was monitored at 550 nm (ε=2.1×104/M). […] Assays were performed on a SpectraMAX plate reader (Molecular Devices).

activity per heme in the fully activated state: 85 % of wild type
B1: G841 deletion mutant: bovine eNOS small insertion mutant with G841 deleted (protein, UniProt P29473 2-1205, looked up, variant G841*)
Nitric oxide synthase 3: GNLKSVGQEPGPPCGLGLGLGLGLCGKQGPASPAPEPSRAPAPATPHAPDHSPAPNSPTLTRPPEGPKFPRVKNWELGSITYDTLCAQSQQDGPCTPRCCLGSLVLPRKLQTRPSPGPPPAEQLLSQARDFINQYYSSIKRSGSQAHEERLQEVEAEVASTGTYHLRESELVFGAKQAWRNAPRCVGRIQWGKLQVFDARDCSSAQEMFTYICNHIKYATNRGNLRSAITVFPQRAPGRGDFRIWNSQLVRYAGYRQQDGSVRGDPANVEITELCIQHGWTPGNGRFDVLPLLLQAPDEAPELFVLPPELVLEVPLEHPTLEWFAALGLRWYALPAVSNMLLEIGGLEFSAAPFSGWYMSTEIGTRNLCDPHRYNILEDVAVCMDLDTRTTSSLWKDKAAVEINLAVLHSFQLAKVTIVDHHAATVSFMKHLDNEQKARGGCPADWAWIVPPISGSLTPVFHQEMVNYILSPAFRYQPDPWKGSATKGAGITRKKTFKEVANAVKISASLMGTLMAKRVKATILYASETGRAQSYAQQLGRLFRKAFDPRVLCMDEYDVVSLEHEALVLVVTSTFGNGDPPENGESFAAALMEMSGPYNSSPRPEQHKSYKIRFNSVSCSDPLVSSWRRKRKESSNTDSAGALGTLRFCVFGLGSRAYPHFCAFARAVDTRLEELGGERLLQLGQGDELCGQEEAFRGWAKAAFQASCETFCVGEEAKAAAQDIFSPKRSWKRQRYRLSTQAEGLQLLPGLIHVHRRKMFQATVLSVENLQSSKSTRATILVRLDTAGQEGLQYQPGDHIGICPPNRPGLVEALLSRVEDPPPPTESVAVEQLEKGSPGPPPSWVRDPRLPPCTLRQALTFFLDITSPPSPRLLRLLSTLAEEPSEQQELETLSQDPRRYEEWKWFRCPTLLEVLEQFPSVALPAPLLLTQLPLLQPRYYSVSSAPNAHPGEVHLTVAVLAYRTQDGLGPLHYGVCSTWLSQLKTGDPVPCFIRGAPSFRLPPDPYVPCILVGPGTGIAPFRGFWQERLHDIESKGLQPAPMTLVFGCRCSQLDHLYRDEVQDAQERGVFGRVLTAFSREPDSPKTYVQDILRTELAAEVHRVLCLERGHMFVCGDVTMATSVLQTVQRILATEGDMELDEAGDVIGVLRDQQRYHEDIFGLTLRTQEVTSRIRTQSFSLQERHLRGAVPWAFDPPGPDTPGP
